In article PMC3105425 (Nucleic Acids Research, 2011):
Blank lines part the entries; values can stand above or below the binder they belong to.

Target: ribosomal protein L2 (E. coli, UniProt P60422 1-273)
Experiment: ELISA

binding result: binds
B1: DnaA protein (natural protein)
chain: MSLSLWQQCLARLQDELPATEFSMWIRPLQAELSDNTLALYAPNRFVLDWVRDKYLNNINGLLTSFCGADAPQLRFEVGTKPVTQTPQAAVTSNVAAPAQVAQTQPQRAAPSTRSGWDNVPAPAEPTYRSNVNVKHTFDNFVEGKSNQLARAAARQVADNPGGAYNPLFLYGGTGLGKTHLLHAVGNGIMARKPNAKVVYMHSERFVQDMVKALQNNAIEEFKRYYRSVDALLIDDIQFFANKERSQEEFFHTFNALLEGNQQIILTSDRYPKEINGVEDRLKSRFGWGLTVAIEPPELETRVAILMKKADENDIRLPGEVAFFIAKRLRSNVRELEGALNRVIANANFTGRAITIDFVREALRDLLALQEKLVTIDNIQKTVAEYYKIKVADLLSKRRSRSVARPRQMAMALAKELTNHSLPEIGDAFGGRDHTTVLHACRKIEQLREESHDIKEDFSNLIRTLSS

fold reduction of the interaction against wild-type DnaA: ~4 fold
B2: DnaAΔ129 lacking the N-terminal 129 residues (domain or fragment)
chain: SNVNVKHTFDNFVEGKSNQLARAAARQVADNPGGAYNPLFLYGGTGLGKTHLLHAVGNGIMARKPNAKVVYMHSERFVQDMVKALQNNAIEEFKRYYRSVDALLIDDIQFFANKERSQEEFFHTFNALLEGNQQIILTSDRYPKEINGVEDRLKSRFGWGLTVAIEPPELETRVAILMKKADENDIRLPGEVAFFIAKRLRSNVRELEGALNRVIANANFTGRAITIDFVREALRDLLALQEKLVTIDNIQKTVAEYYKIKVADLLSKRRSRSVARPRQMAMALAKELTNHSLPEIGDAFGGRDHTTVLHACRKIEQLREESHDIKEDFSNLIRTLSS

binding result: binds
B3: DnaAΔ220-294 lacking residues 220–294 (natural protein)
chain: MSLSLWQQCLARLQDELPATEFSMWIRPLQAELSDNTLALYAPNRFVLDWVRDKYLNNINGLLTSFCGADAPQLRFEVGTKPVTQTPQAAVTSNVAAPAQVAQTQPQRAAPSTRSGWDNVPAPAEPTYRSNVNVKHTFDNFVEGKSNQLARAAARQVADNPGGAYNPLFLYGGTGLGKTHLLHAVGNGIMARKPNAKVVYMHSERFVQDMVKALQNNAIEPPELETRVAILMKKADENDIRLPGEVAFFIAKRLRSNVRELEGALNRVIANANFTGRAITIDFVREALRDLLALQEKLVTIDNIQKTVAEYYKIKVADLLSKRRSRSVARPRQMAMALAKELTNHSLPEIGDAFGGRDHTTVLHACRKIEQLREESHDIKEDFSNLIRTLSS
